Laboratory results from the Immune Epitope Database (IEDB).

How the values were obtained:
[1] = biological target: HLA-A*03:01; assay: IEDB peptide-MHC binding, purified MHC/competitive/fluorescence; filed as Kd, often an IC50 or EC50 that approximates it; ≥ and ≤ were set here for values at or beyond the usual limits of such assays
[2] = biological target: HLA-A*68:02; assay: as above
[3] = biological target: HLA-A*11:01; assay: IEDB peptide-MHC binding, purified MHC/competitive/fluorescence; ≥ and ≤ were set here for values at or beyond the usual limits of such assays
[4] = biological target: HLA-A*24:02; assay: as above; details: source organism: Sudan ebolavirus
[5] = biological target: HLA-B*53:01; assay: IEDB peptide-MHC binding, purified MHC/competitive/radioactivity; filed as Kd, often an IC50 or EC50 that approximates it; ≥ and ≤ were set here for values at or beyond the usual limits of such assays
[6] = biological target: HLA-B*54:01; assay: as above
[7] = biological target: HLA-B*07:02; assay: as above
[8] = biological target: HLA-B*51:01; assay: as above
[9] = biological target: HLA-B*35:01; assay: as above
[10] = biological target: HLA-B*15:03; assay: as above
[11] = biological target: HLA-B*07:02; assay: IEDB peptide-MHC binding, purified MHC/competitive/fluorescence; ≥ and ≤ were set here for values at or beyond the usual limits of such assays; details: source organism: Sudan ebolavirus
[12] = biological target: HLA-B*15:01; assay: IEDB peptide-MHC binding, purified MHC/competitive/radioactivity; filed as Kd, often an IC50 or EC50 that approximates it; ≥ and ≤ were set here for values at or beyond the usual limits of such assays
[13] = biological target: HLA-B*58:01; assay: as above
[14] = biological target: HLA-A*02:06; assay: as above
[15] = biological target: HLA-A*02:02; assay: as above
[16] = biological target: HLA-A*02:03; assay: as above
[17] = biological target: HLA-A*02:01; assay: as above
[18] = biological target: HLA-A*68:02; assay: as above
[19] = biological target: HLA-A*02:03; assay: IEDB peptide-MHC binding, purified MHC/direct/fluorescence; filed as Kd, often an IC50 or EC50 that approximates it; ≥ and ≤ were set here for values at or beyond the usual limits of such assays; details: source organism: Mycobacterium tuberculosis str. Haarlem
[20] = biological target: HLA-A*69:01; assay: as above; details: source organism: Mycobacterium tuberculosis
[21] = biological target: HLA-B*15:01; assay: IEDB peptide-MHC binding, purified MHC/competitive/fluorescence; ≥ and ≤ were set here for values at or beyond the usual limits of such assays; details: source organism: Zaire ebolavirus
[22] = biological target: HLA-A*02:01; assay: as above; details: source organism: Zaire ebolavirus
[23] = biological target: HLA-B*08:01; assay: IEDB peptide-MHC binding, purified MHC/competitive/radioactivity; filed as Kd, often an IC50 or EC50 that approximates it; ≥ and ≤ were set here for values at or beyond the usual limits of such assays; details: source organism: Vaccinia virus Copenhagen
[24] = biological target: HLA-A*30:01; assay: as above; details: source organism: Vaccinia virus Copenhagen
[25] = biological target: HLA-A*32:01; assay: as above; details: source organism: Vaccinia virus Copenhagen
[26] = source organism: SARS coronavirus Tor2
[27] = source organism: Vaccinia virus WR
[28] = source organism: Vaccinia virus Copenhagen
[29] = source organism: Human immunodeficiency virus type 1 BH10
[30] = source organism: Triticum aestivum

Question: Which Kd ([1]; source organism: Bacillus cereus G9241) does the source give for RVDEIILFK here?
Answer: The Kd was 0.156 µM.

Question: With DVALEDNLI as the sequence, how does the Kd ([2]; source organism: Vibrio cholerae V52) read?
Answer: The Kd was 0.0919 µM.

Question: For TFLQSPPIR, which IC50 ([3]; source organism: Sudan ebolavirus) is on record?
Answer: The IC50 was ≥ 119 µM.

Question: And the IC50 [4]?
Answer: Its IC50 is 38.8 µM.

Question: Which Kd ([2]; source organism: Human immunodeficiency virus 1) does the source give for EELRSLYNTI here?
Answer: The Kd was ≥ 20 µM.

Question: For KTYYHHTGY, which Kd ([1]; source organism: Francisella tularensis subsp. holarctica OSU18) is on record?
Answer: Its Kd is 0.0052 µM.

Question: With KPASRELSV as the sequence, how does the Kd [5, 26] read?
Answer: The Kd was 14.4 µM.

Question: What about the Kd [6, 26] of the same sequence?
Answer: The Kd was 9.54 µM.

Question: What about the Kd [7, 26] of the same sequence?
Answer: The Kd was 0.0057 µM.

Question: And the Kd [8, 26]?
Answer: Its Kd is 0.631 µM.

Question: And the Kd [9, 26]?
Answer: The Kd was 11.8 µM.

Question: How did the Kd [10, 27] turn out when RQVVDFFKF was run?
Answer: The Kd was 0.000344 µM.

Question: With PPLISILMI as the sequence, how does the Kd [5, 27] read?
Answer: Its Kd is 0.818 µM.

Question: What about the Kd [6, 27] of the same sequence?
Answer: The Kd was 8.78 µM.

Question: And the Kd [7, 27]?
Answer: The Kd was 7.3 µM.

Question: And the Kd [8, 27]?
Answer: Its Kd is 0.0912 µM.

Question: What about the Kd [9, 27] of the same sequence?
Answer: Its Kd is 19.3 µM.

Question: How did the Kd [5, 26] turn out when CPAEIVDTV was run?
Answer: The Kd was 0.121 µM.

Question: What about the Kd [6, 26] of the same sequence?
Answer: The Kd was 0.00999 µM.

Question: And the Kd [7, 26]?
Answer: Its Kd is 0.893 µM.

Question: What about the Kd [8, 26] of the same sequence?
Answer: Its Kd is 0.00188 µM.

Question: And the Kd [9, 26]?
Answer: The Kd was 0.196 µM.

Question: Which IC50 [11] does the source give for LRKRSRRQT here?
Answer: Its IC50 is 18.8 µM.

Question: With TLYDRYLIH as the sequence, how does the Kd ([1]; source organism: Coxiella burnetii RSA 331) read?
Answer: The Kd was 0.0069 µM.

Question: What does the source list for QLYSTLLSF?
Answer: Kd [12, 27]: 0.003 µM; Kd [10, 27]: 0.000565 µM

Question: KHAQRIETW was tested. Which Kd ([13]; source organism: Dengue virus 2 Peru/IQT2913/1996) did it give?
Answer: The Kd was 0.482 µM.

Question: How did the Kd [5, 27] turn out when AFEFINSLLK was run?
Answer: Its Kd is ≥ 69.9 µM.

Question: And the Kd [6, 27]?
Answer: Its Kd is ≥ 69.9 µM.

Question: What about the Kd [14, 27] of the same sequence?
Answer: Its Kd is ≥ 42.8 µM.

Question: What about the Kd [15, 27] of the same sequence?
Answer: The Kd was 5.48 µM.

Question: And the Kd [16, 27]?
Answer: Its Kd is ≥ 20.6 µM.

Question: What about the Kd [17, 27] of the same sequence?
Answer: Its Kd is 12.1 µM.

Question: And the Kd [18, 27]?
Answer: Its Kd is 11.5 µM.

Question: And the Kd [7, 27]?
Answer: Its Kd is ≥ 69.6 µM.

Question: And the Kd [8, 27]?
Answer: Its Kd is ≥ 69.6 µM.

Question: And the Kd [9, 27]?
Answer: Its Kd is ≥ 69.9 µM.

Question: For FNVNGSQVY, which Kd [10, 27] is on record?
Answer: The Kd was 0.264 µM.

Question: Which Kd [10, 28] does the source give for RSSRGVQFL here?
Answer: The Kd was 0.123 µM.

Question: Which results are given for EQYKTESFF?
Answer: Kd [12, 27]: 0.00657 µM; Kd [10, 27]: 0.0018 µM

Question: How did the Kd [14, 29] turn out when RGPGRAFVTI was run?
Answer: The Kd was 5.79 µM.

Question: And the Kd [15, 29]?
Answer: The Kd was ≥ 70 µM.

Question: And the Kd [16, 29]?
Answer: The Kd was 12.2 µM.

Question: And the Kd [17, 29]?
Answer: Its Kd is 4.6 µM.

Question: What about the Kd [18, 29] of the same sequence?
Answer: Its Kd is ≥ 69.8 µM.

Question: Which Kd [5, 26] does the source give for HPNPKGFCDL here?
Answer: The Kd was 0.698 µM.

Question: And the Kd [6, 26]?
Answer: The Kd was 9.77 µM.

Question: What about the Kd [7, 26] of the same sequence?
Answer: The Kd was 0.968 µM.

Question: What about the Kd [8, 26] of the same sequence?
Answer: The Kd was 0.923 µM.

Question: What about the Kd [9, 26] of the same sequence?
Answer: Its Kd is 0.312 µM.

Question: How did the Kd [5, 27] turn out when NPNCLEWLRA was run?
Answer: Its Kd is 2.05 µM.

Question: What about the Kd [6, 27] of the same sequence?
Answer: Its Kd is 0.0202 µM.

Question: And the Kd [7, 27]?
Answer: Its Kd is 17.4 µM.

Question: What about the Kd [8, 27] of the same sequence?
Answer: Its Kd is ≥ 69.6 µM.

Question: What about the Kd [9, 27] of the same sequence?
Answer: Its Kd is 1.16 µM.

Question: Which Kd [19] does the source give for ALLENIHRV here?
Answer: The Kd was 0.002 µM.

Question: What about the Kd [20] of the same sequence?
Answer: Its Kd is 0.0473 µM.

Question: With FGIKCIKKG as the sequence, how does the IC50 ([3]; source organism: Vaccinia virus) read?
Answer: Its IC50 is ≥ 290 µM.

Question: How did the Kd ([13]; source organism: Dengue virus 1 Brazil/97-11/1997) turn out when RSVSGDLIL was run?
Answer: Its Kd is 0.00984 µM.

Question: For EPISDYSAEV, which Kd [5, 27] is on record?
Answer: The Kd was 2.39 µM.

Question: And the Kd [6, 27]?
Answer: Its Kd is 0.0466 µM.

Question: What about the Kd [7, 27] of the same sequence?
Answer: Its Kd is 1.39 µM.

Question: What about the Kd [8, 27] of the same sequence?
Answer: The Kd was 1.11 µM.

Question: And the Kd [9, 27]?
Answer: Its Kd is 1.08 µM.

Question: For IGLAWIPYF, which IC50 [21] is on record?
Answer: Its IC50 is ≥ 153 µM.

Question: What about the IC50 [22] of the same sequence?
Answer: Its IC50 is 5.68 µM.

Question: What does the source list for QPFLQPQL?
Answer: Kd [5, 30]: ≥ 87.7 µM; Kd [6, 30]: 6.35 µM; Kd [7, 30]: 0.349 µM; Kd [8, 30]: 1.11 µM; Kd [9, 30]: ≥ 87.8 µM

Question: What does the source list for ELAYYNSCM?
Answer: Kd [23]: 0.346 µM; Kd [24]: 1.45 µM; Kd [12, 28]: 0.594 µM; Kd [14, 27]: 3.58 µM; Kd [15, 27]: 0.129 µM; Kd [16, 27]: 0.136 µM; Kd [25]: ≥ 20.6 µM; Kd [10, 28]: 4.14 µM
